From patent US6790831B2, “Systemic carnitine deficiency gene and use thereof” (Chugai Seiyaku Kabushiki Kaisha, priority 1998, dated 2004)
Entries after “also recorded” stand apart in the source; their conditions may differ.

Test system: HEK293 cells
Assay: carnitine transporting activity assay of mouse OCTN2 expressed from plasmid DNA in HEK293 cells
Assay type: cell-based
Conditions: plasmid DNA expressing the protein introduced into HEK293 cells; Mock = cDNA-non-containing vector; FIG. 3
Description: Another embodiment of the therapeutic drug for systemic carnitine deficiency uses a compound that enhances the activity of the OCTN2 protein as the active ingredient. Such a compound can be screened as follows. For example, a plasmid expressing the OCTN2 protein is constructed, and this is introduced into HEK293 cells by the calcium phosphate method. Radiolabeled carnitine and a test compound are added to this transformant and the carnitine transporting activity into the cells is determined. A compound that can enhance the carnitine transporting activity is selected by comparing with the activity of the OCTN2 protein in the absence of the test compound. See Japanese Patent Application Hei 9-260972 and Hei 10-156660 for the detailed method.
Next, the effect this mutation has on the carnitine transporting activity was examined. Plasmid DNA expressing wild-type mouse OCTN2, and those expressing mutated OCTN2 were separately introduced into HEK293 cells, and then, carnitine transporting ability was measured similar to the assay of human OCTN2 described in Japanese Patent Application Hei 10-156660 (FIG. 3). […] However, both proteins were confirmed to be expressed at a similar amount by a western blotting using an antibody against the c-myc epitope sequence (NH2—EQKLISEEDL—COOH; SEQ ID NO:26) added to the C terminus (FIG. 4).

B1: wild-type mouse OCTN2: mouse OCTN2 protein, amino acid sequence SEQ ID NO:3, sodium-ion dependent carnitine transporter (protein)
chain: MRDYDEVTAFLGEWGPFQRLIFFLLSASIIPNGFNGMSIVFLAGTPEHRCLVPHTVNLSSAWRNHSIPLETKDGRQVPQKCRRYRLATIANFSELGLEPGRDVDLEQLEQESCLDGWEYDKDVFLSTIVTEWDLVCKDDWKAPLTTSLFFVGVLMGSFISGQLSDRFGRKNVLFLTMGMQTGFSFLQVFSVNFEMFTVLFVLVGMGQISNYVAAFVLGTEILSKSIRIIFATLGVCIFYAFGFMVLPLFAYFIRDWRMLLLALTVPGVLCGALWWFIPESPRWLISQGRIKEAEVIIRKAAKINGIVAPSTIFDPSELQDLNSTKPQLHHIYDLIRTRNIRVITIMSIILWLTISVGYFGLSLDTPNLHGDIYVNCFLLAAVEVPAYVLAWLLLQYLPRRYSISAALFLGGSVLLFMQLVPSELFYLSTALVMVGKFGITSAYSMVYVYTAELYPTVVRNMGVGVSSTASRLGSILSPYFVYLGAYDRFLPYILMGSLTILTAILTLFFPESFGVPLPDTIDQMLRVKGIKQWQIQSQTRMQKDGEESPTVLKSTAF
- carnitine transporting activity: sodium-dependent carnitine transporting activity is seen; also recorded: shows a carnitine transporting activity similar to human OCTN2

B2: mutated OCTN2: jvs mouse OCTN2 in which the 352nd leucine (CTG) is mutated to arginine (CGG) (protein, UniProt Q9Z0E8 1-557, looked up, variant L352R)
chain: MRDYDEVTAFLGEWGPFQRLIFFLLSASIIPNGFNGMSIVFLAGTPEHRCLVPHTVNLSSAWRNHSIPLETKDGRQVPQKCRRYRLATIANFSELGLEPGRDVDLEQLEQESCLDGWEYDKDVFLSTIVTEWDLVCKDDWKAPLTTSLFFVGVLMGSFISGQLSDRFGRKNVLFLTMGMQTGFSFLQVFSVNFEMFTVLFVLVGMGQISNYVAAFVLGTEILSKSIRIIFATLGVCIFYAFGFMVLPLFAYFIRDWRMLLLALTVPGVLCGALWWFIPESPRWLISQGRIKEAEVIIRKAAKINGIVAPSTIFDPSELQDLNSTKPQLHHIYDLIRTRNIRVITIMSIILWRTISVGYFGLSLDTPNLHGDIYVNCFLLAAVEVPAYVLAWLLLQYLPRRYSISAALFLGGSVLLFMQLVPSELFYLSTALVMVGKFGITSAYSMVYVYTAELYPTVVRNMGVGVSSTASRLGSILSPYFVYLGAYDRFLPYILMGSLTILTAILTLFFPESFGVPLPDTIDQMLRVKGIKQWQIQSQTRMQKDGEESPTVLKSTAF
modifications: full-length
- carnitine transporting activity: absolutely no activity
